US20250051445A1

Assays:
[1] = molecular target: α/β TCR/CD3 complex on Jurkat, Clone E6-1 cells (human) (UniProt P07766); assay: flow cytometry on Jurkat Clone E6-1 cells, Fab titration 10 µg/ml to 10 ng/ml; AUC of MFI vs log concentration; the reference itself, set to zero
[2] = molecular target: α/β TCR/CD3 complex on Jurkat, Clone E6-1 cells (human) (UniProt P07766); assay: flow cytometry on Jurkat Clone E6-1 cells, Fab titration 10 µg/ml to 10 ng/ml; EC50 of MFI, fold decrease vs TPP-1374
[3] = molecular target: α/β TCR/CD3 complex on Jurkat, Clone E6-1 cells (human) (UniProt P07766); assay: flow cytometry on Jurkat Clone E6-1 cells, Fab titration 10 µg/ml to 10 ng/ml; AUC of MFI vs log concentration, gain vs TPP-1374

Chain of UniProt P07766 (P07766 23-207, chain 1 of 4): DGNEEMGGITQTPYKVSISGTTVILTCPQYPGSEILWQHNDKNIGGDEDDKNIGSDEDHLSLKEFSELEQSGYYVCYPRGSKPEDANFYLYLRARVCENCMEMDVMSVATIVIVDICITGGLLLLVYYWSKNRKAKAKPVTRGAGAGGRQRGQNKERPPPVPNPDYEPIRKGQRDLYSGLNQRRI
Chain of UniProt P07766 (P09693 23-182, chain 2 of 4, further chain): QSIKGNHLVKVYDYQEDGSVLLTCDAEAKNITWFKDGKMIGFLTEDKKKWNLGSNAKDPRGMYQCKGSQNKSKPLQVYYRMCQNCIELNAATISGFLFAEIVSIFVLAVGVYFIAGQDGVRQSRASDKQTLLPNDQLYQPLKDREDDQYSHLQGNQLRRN
Chain of UniProt P07766 (P04234 22-171, chain 3 of 4, further chain): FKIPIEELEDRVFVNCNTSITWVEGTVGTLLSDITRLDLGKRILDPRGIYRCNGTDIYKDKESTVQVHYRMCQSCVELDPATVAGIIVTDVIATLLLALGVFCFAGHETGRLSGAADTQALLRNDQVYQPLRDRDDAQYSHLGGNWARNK
Chain of UniProt P07766 (P20963 22-164, chain 4 of 4, further chain): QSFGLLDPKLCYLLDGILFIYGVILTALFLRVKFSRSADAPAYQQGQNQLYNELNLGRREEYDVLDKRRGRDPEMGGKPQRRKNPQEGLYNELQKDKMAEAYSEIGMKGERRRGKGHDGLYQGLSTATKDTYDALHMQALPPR

% gain in binding AUC [1] [%]	fold decrease in EC50 [2] [fold]	% gain in binding AUC [3] [%]	Binder
0	–	–	TPP-1374, Fab fragment of BMA031 (V36) (Fab, V domains shown) VH: EVQLVQSGAEVKKPGASVKVSCKASGYKFTSYVMHWVRQAPGQGLEWMGYINPYNDVTKYAEKFQGRVTLTSDTSTSTAYMELSSLRSEDTAVHYCARGSYYDYEGFVYWGQGTLVTVSS VL: QIQMTQSPSSLSASVGDRVTITCSATSSVSYMHWYQQKPGKAPKRWIYDTSKLASGVPSRFSGSGSGTDYTLTISSLQPEDAATYYCQQWSSNPLTFGGGTKVEIKR
–	2.1	87	TPP-1375 Fab fragment (Fab, V domains shown) VH: EVQLVQSGAEVKKPGASVKVSCKASGYKFRSYVMHWVRQAPGQGLEWMGYINPYNDVTKYAEKFQGRVTLTSDTSTSTAYMELSSLRSEDTAVHYCARGSYYDYEGFVYWGQGTLVTVSS VL: QIQMTQSPSSLSASVGDRVTITCSATSSVSYMHWYQQKPGKAPKRWIYDTSKLASGVPSRFSGSGSGTDYTLTISSLQPEDAATYYCQQWSSNPLTFGGGTKVEIKR
